The values that follow come from publication PMC3794917.

Data set [1] concerns the target Rad51;Rad52-L264P L264P (Saccharomyces cerevisiae) (UniProt P06778). Put plainly: EMSA (glutaraldehyde-fixed, agarose). Conditions: Rad52 EMSA: 10 mM Tris-HCl pH 8, 5 mM MgCl2, 100 mM NaCl, 37 C, 10 min, 0.27 uM XV2, 8% native PAGE, filament assays: SEB buffer, 60 mM NaCl (or titrated) …, scale: mM NaCl.
For data set [2], the target named is Rad51;Rad52 (Saccharomyces cerevisiae) (UniProt P06778). The experiment in a line: EMSA (glutaraldehyde-fixed, agarose). Conditions: Rad52 EMSA: 10 mM Tris-HCl pH 8, 5 mM MgCl2, 100 mM NaCl, 37 C, 10 min, 0.27 uM XV2, 8% native PAGE, filament assays: SEB buffer, 60 mM NaCl (or titrated) …, scale: mM NaCl. On the technique in general: A gel shift assay detects complexes by their altered migration in electrophoresis.

Data set [3] addresses Rad51;Rad52-L264P L264P (Saccharomyces cerevisiae) (UniProt P06778). Put plainly: EM. The settings on record: RPA pre-bound, 60 mM NaCl (WT Rad52 55%); Rad52 EMSA: 10 mM Tris-HCl pH 8, 5 mM MgCl2, 100 mM NaCl, 37 C, 10 min, 0.27 uM XV2, 8% native PAGE; filament assays: SEB buffer, 60 mM NaCl (or titrated) …; scale: % of complete Rad51 filaments associated with Rad52-L264P.
Data set [4] concerns the target Rad51;Rad52 (Saccharomyces cerevisiae) (UniProt P06778). Put plainly: EM. The settings on record: RPA pre-bound, 60 mM NaCl, Rad52 EMSA: 10 mM Tris-HCl pH 8, 5 mM MgCl2, 100 mM NaCl, 37 C, 10 min, 0.27 uM XV2, 8% native PAGE, filament assays: SEB buffer, 60 mM NaCl (or titrated) ….

Rad51;Rad52-L264P L264P (Saccharomyces cerevisiae), sequence (P06778 whole entry L264P, looked up): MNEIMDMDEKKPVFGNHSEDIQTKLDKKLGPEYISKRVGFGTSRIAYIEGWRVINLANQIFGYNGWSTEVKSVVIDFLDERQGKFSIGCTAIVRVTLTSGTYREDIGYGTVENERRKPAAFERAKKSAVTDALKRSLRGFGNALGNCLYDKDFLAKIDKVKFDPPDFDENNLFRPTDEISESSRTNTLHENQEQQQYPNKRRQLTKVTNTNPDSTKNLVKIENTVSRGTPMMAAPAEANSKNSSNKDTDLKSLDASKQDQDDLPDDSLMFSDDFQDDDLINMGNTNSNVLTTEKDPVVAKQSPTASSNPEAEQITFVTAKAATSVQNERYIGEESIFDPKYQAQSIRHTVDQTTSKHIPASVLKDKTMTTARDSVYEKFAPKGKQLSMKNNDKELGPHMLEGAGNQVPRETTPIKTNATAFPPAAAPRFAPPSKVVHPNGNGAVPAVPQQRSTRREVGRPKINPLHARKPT
Rad51;Rad52 (Saccharomyces cerevisiae), sequence (P06778 whole entry, looked up): as the sequence (P06778 whole entry L264P, looked up) above, with P264L counted along it

On to 400-nt ssDNA fragment, for which the K half amounted to 400 in data set [1] (RPA pre-bound, NaCl added after assembly, no difference from WT); 90 in data set [1]; 90 in data set [2] (RPA pre-bound, NaCl titration during assembly); 400 in data set [2]. In addition, the binding signal in data set [3] was 74; in data set [4] (scale: % of complete Rad51 filaments associated with Rad52) it was 55. This substance gave a binding signal (% complete Rad51 filaments) in data set [4] (55% of complete filaments carry Rad52) of 48.
